US8420776 (US Dept. of Health and Human Services, dated 2013)

B1: endogenous Ube2G2 of HEK 293T cells (enzyme)
chain: AGTALKRLMAEYKQLTLNPPEGIVAGPMNEENFFEWEALIMGPEDTCFEFGVFPAILSFPLDYPLSPPKMRFTCEMFHPNIYPDGRVCISILHAPGDDPMGYESSAERWSPVQSVEKILLSVVSMLAEPNDESGANVDASKMWRDDREQFYKIAKQIVQKSLGL
notes: Endogenous protein in cell lysate, detected with rabbit antiserum to residues 148-165; also called endogenous E2
B2: Myc-Ube2G2, co-expressed in HEK 293T cells (enzyme, not shown: small tags and cut ends)
chain: MAGTALKRLMAEYKQLTLNPPEGIVAGPMNEENFFEWEALIMGPEDTCFEFGVFPAILSFPLDYPLSPPKMRFTCEMFHPNIYPDGRVCISILHAPGDDPMGYESSAERWSPVQSVEKILLSVVSMLAEPNDESGANVDASKMWRDDREQFYKIAKQIVQKSLGL
notes: Plasmid described in Tiwari and Weissman, 2001; also called Myc-MmUbc7; myc-tagged MmUbc7/Ube2G2

Experiments:
[1] = target: T1, N-terminal GFP fusion of gp78 residues 574-611 (GFP-574-611) (human, UniProt P42212 1-238 = GFP); assay: co-immunoprecipitation with GFP fusion from HEK 293T cells
T1 construct: the vector encodes the enhanced variant; also called G2BD
Protocol: J558 cells were transfected by electroporation using Bio-rad GENE pulser II at settings of 250 v, 950uF. Vector without insert was used to equalize total plasmid. In most experiments 0.15 μg of pEGFP-C1 served as an internal control. For experiments not involving immunoprecipitation, 6×10^5 cells were plated in 6 well plates and cell lysis was with Mammalian Protein Extraction Reagent (Pierce). For immunoprecipitation, 2.4× 10^6 cells were seeded in 100 mm dishes and cells were lysed in RIPA buffer (1×PBS, 1% Nonidet P40. 0.5% sodium deoxycholate, 0.1% SDS). Lysis buffers were supplemented with Protease Inhibitor Cocktail (Sigma) and 10 mM iodoacetamide. Supernatants were analyzed after a 10,000×g centrifugation using standard techniques for immunoprecipitation, SDS-PAGE, immunoblotting and ECL. Treatment of cells with MG132 (Sigma) was at 50 μM for eight hr. Cycloheximnide was used at 50 μg/ml. All cells were collected at the end of the six hr chase.
Cells were transfected with plasmids encoding GFP fusions of the indicated regions of gp78, and co-immunoprecipitation was evaluated.

[2] = target: N-terminal GFP fusion of gp78 residues 574-611 with the E2-m2 mutation (GFP-574-611E2-m2) (human, UniProt P42212 1-238 = GFP); assay: anti-GFP immunoprecipitation from HEK 293T cells, immunoblot for endogenous Ube2G2
Protocol: (§1) (FIG. 19A) Cells were co-transfected with Myc-Ube2G2 and the indicated gp78 mutants. […] Samples were treated with MG132 for 8 hr prior to lysis. IP (upper two panels) with anti-Myc was followed by IB as indicated. Lysate corresponding to 10% of the material used for IP was directly IB'ed for gp78 in the lower panel. […] Anti-GFP IPs (left panel) or whole cell lysates corresponding to approximately 10% of the amount used for IP (right panel) were IB'ed with antibodies raised against different E2s as indicated. (C) Cells were transfected with GFP fusions as in B together with plasmid encoding Myc-tagged Ube2G2 and IP carried out with anti-Myc (upper two panels). Immunoblotting of IPs and whole cell lysate (lower panel) was with either anti-GFP (top and bottom panels) or with anti-Myc (middle panel).
(§2) Vector without insert was used to equalize total plasmid. In most experiments 0.15 μg of pEGFP-C1 served as an internal control. For experiments not involving immunoprecipitation, 6×10^5 cells were plated in 6 well plates and cell lysis was with Mammalian Protein Extraction Reagent (Pierce). For immunoprecipitation, 2.4× 10^6 cells were seeded in 100 mm dishes and cells were lysed in RIPA buffer (1×PBS, 1% Nonidet P40. 0.5% sodium deoxycholate, 0.1% SDS). […] Supernatants were analyzed after a 10,000×g centrifugation using standard techniques for immunoprecipitation, SDS-PAGE, immunoblotting and ECL. […]

[3] = target: T2, gp78 truncated after amino acid 576 of SEQ ID NO:2 (gp78576) (human, UniProt Q9UKV5 1-576); assay: anti-Myc immunoprecipitation from co-transfected cells, anti-gp78 immunoblot
T2 construct: C-terminal truncation after the indicated amino acid
T2 sequence (Q9UKV5 1-576): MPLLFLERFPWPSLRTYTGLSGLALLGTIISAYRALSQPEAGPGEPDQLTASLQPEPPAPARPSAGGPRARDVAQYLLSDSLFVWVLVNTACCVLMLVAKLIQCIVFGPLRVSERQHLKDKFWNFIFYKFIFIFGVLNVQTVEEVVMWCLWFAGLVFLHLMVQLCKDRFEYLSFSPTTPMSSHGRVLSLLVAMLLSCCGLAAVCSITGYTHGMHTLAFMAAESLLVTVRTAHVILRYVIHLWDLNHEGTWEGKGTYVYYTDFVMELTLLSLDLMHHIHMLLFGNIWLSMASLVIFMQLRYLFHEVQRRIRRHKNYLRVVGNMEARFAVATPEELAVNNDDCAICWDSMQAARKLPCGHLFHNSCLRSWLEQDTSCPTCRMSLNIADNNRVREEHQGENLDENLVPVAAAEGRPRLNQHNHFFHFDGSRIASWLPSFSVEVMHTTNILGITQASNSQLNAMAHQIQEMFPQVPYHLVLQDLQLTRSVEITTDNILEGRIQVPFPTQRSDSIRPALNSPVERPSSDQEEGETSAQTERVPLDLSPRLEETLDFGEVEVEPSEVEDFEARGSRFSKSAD
Protocol: (§3) Samples were treated with MG132 for 8 hr prior to lysis. IP (upper two panels) with anti-Myc was followed by IB as indicated. Lysate corresponding to 10% of the material used for IP was directly IB'ed for gp78 in the lower panel.
(§4) Cells were treated with the proteasome inhibitor MG132 in an attempt to equalize levels of the various forms of gp78.

[4] = target: T3, gp78 truncated after amino acid 595 of SEQ ID NO:2 (gp78595) (human, UniProt Q9UKV5 1-595); assay: as above
T3 construct: C-terminal truncation after the indicated amino acid
T3 sequence (Q9UKV5 1-595): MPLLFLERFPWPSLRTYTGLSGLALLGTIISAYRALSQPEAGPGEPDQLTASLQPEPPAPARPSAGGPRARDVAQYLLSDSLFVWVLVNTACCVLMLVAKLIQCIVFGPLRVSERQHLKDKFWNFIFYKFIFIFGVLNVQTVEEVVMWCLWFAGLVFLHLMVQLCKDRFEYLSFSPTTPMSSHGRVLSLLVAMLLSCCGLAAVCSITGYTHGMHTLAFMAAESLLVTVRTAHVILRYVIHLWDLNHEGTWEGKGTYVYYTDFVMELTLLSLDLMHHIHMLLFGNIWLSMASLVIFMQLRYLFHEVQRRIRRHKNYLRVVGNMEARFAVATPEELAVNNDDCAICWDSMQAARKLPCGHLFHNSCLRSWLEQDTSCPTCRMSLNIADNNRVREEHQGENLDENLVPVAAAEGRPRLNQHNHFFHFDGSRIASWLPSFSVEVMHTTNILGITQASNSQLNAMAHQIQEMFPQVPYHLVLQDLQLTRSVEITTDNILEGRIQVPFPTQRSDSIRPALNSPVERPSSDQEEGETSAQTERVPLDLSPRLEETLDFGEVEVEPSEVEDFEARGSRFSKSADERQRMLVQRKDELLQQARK
Protocol: as §3, §4

[5] = target: T4, gp78 truncated after residue 611 of SEQ ID NO:2 (gp78611) (human, UniProt Q9UKV5 1-611); assay: as above
T4 construct: C-terminal truncation after the indicated amino acid
T4 sequence (Q9UKV5 1-611): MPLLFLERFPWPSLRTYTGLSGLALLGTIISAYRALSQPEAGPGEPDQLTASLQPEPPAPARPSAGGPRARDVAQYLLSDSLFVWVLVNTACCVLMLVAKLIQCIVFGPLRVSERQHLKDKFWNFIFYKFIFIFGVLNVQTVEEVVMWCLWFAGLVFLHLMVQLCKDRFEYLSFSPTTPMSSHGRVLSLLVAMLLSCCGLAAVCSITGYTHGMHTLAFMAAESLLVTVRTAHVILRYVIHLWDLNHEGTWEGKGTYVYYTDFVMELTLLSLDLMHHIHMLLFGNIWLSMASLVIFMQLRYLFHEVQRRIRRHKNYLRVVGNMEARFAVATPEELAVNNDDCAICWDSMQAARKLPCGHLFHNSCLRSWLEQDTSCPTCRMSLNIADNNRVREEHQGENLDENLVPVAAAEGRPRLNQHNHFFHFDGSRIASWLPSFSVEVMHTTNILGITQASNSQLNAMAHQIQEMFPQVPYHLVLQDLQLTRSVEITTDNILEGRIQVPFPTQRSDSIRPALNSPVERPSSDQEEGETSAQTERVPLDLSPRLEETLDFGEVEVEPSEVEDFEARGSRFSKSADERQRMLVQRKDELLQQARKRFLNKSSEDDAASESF
Protocol: as §3, §4

[6] = target: N-terminal GFP fusion of gp78 amino acids 579-600 of SEQ ID NO:2 (human, UniProt P42212 1-238 = GFP); assay: anti-Myc immunoprecipitation from cells co-transfected with GFP fusion and Myc-Ube2G2, anti-GFP immunoblot
Protocol: as §1, §2

Row | Binder | binding result [1] | binding result [2] | binding result [3] | binding result [4] | binding result [5] | binding result [6]
1 | B1 | binds | no binding | – | – | – | –
2 | B2 | – | – | no binding | no binding | binds | binds
